From patent publication US20260242735A1 (UNIVERSIT T BASEL, published 2026)
Each block holds one binder with its values, some of them ahead of it.

Assays:
Assay in all cases: flow cytometry, HEK293-T, IgG;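 note: CD33 point mutants transiently expressed, antibody binding measured by fluorescence in duplicate, background subtracted and scaled to binding on wild-type CD33 as 100%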
human CD33 D18R = human CD33 D18R (human, UniProt P20138 19-364)
Procedure: (§1) An alanine scan on human CD33 was performed to the determine the residues on CD33 that are involved in binding to the antibodies investigated. […] Briefly, a mutation library of CD33 was created by high-throughput, site-directed mutagenesis. Each residue was individually mutated to alanine, with alanine codons mutated to serine. The mutant library was arrayed in 384-well microplates and transiently transfected into HEK293-T. Following transfection, cells were incubated with the indicated antibodies (IgG or Fab) at concentrations pre-determined using an independent immunofluorescence titration curve on wild type CD33. […] Binding of each antibody to each mutant clone was determined in duplicates. For each point, background fluorescence was subtracted from the raw data, which were then normalized to antibody reactivity with wild type CD33.
(§2) Antibodies were screened for binding to the human CD33 variants in IgG format. […] For each mutation, background fluorescence was subtracted from the raw data, which were then normalized to antibody reactivity with wild-type CD33.

human CD33 D18N = human CD33 D18N (human, UniProt P20138 19-364)
Procedure: as §1, §2

human CD33 P19L = human CD33 P19L (human, UniProt P20138 18-364)
Procedure: as §1, §2

human CD33 P19D = human CD33 P19D (human, UniProt P20138 18-364)
Procedure: as §1, §2

human CD33 P19K = human CD33 P19K (human, UniProt P20138 18-364)
Procedure: as §1, §2

human CD33 N20S = human CD33 N20S (human, UniProt P20138 18-364)
Procedure: as §1, §2

human CD33 N20T = human CD33 N20T (human, UniProt P20138 18-364)
Procedure: as §1, §2

human CD33 N20L = human CD33 N20L (human, UniProt P20138 18-364)
Procedure: as §1, §2

human CD33 N20P = human CD33 N20P (human, UniProt P20138 18-364)
Procedure: as §1, §2

human CD33 N20Y = human CD33 N20Y (human, UniProt P20138 18-364)
Procedure: as §1, §2

human CD33 N20W = human CD33 N20W (human, UniProt P20138 18-364)
Procedure: as §1, §2

human CD33 N20Q = human CD33 N20Q (human, UniProt P20138 18-364)
Procedure: as §1, §2

human CD33 N20E = human CD33 N20E (human, UniProt P20138 18-364)
Procedure: as §1, §2

human CD33 N20K = human CD33 N20K (human, UniProt P20138 18-364)
Procedure: as §1, §2

human CD33 N20V = human CD33 N20V (human, UniProt P20138 18-364)
Procedure: as §1, §2

human CD33 F21S = human CD33 F21S (human, UniProt P20138 18-364)
Procedure: as §1, §2

human CD33 F21L = human CD33 F21L (human, UniProt P20138 18-364)
Procedure: as §1, §2

human CD33 F21I = human CD33 F21I (human, UniProt P20138 18-364)
Procedure: as §1, §2

human CD33 F21H = human CD33 F21H (human, UniProt P20138 18-364)
Procedure: as §1, §2

human CD33 W22G = human CD33 W22G (human, UniProt P20138 18-364)
Procedure: as §1, §2

human CD33 W22T = human CD33 W22T (human, UniProt P20138 18-364)
Procedure: as §1, §2

human CD33 W22L = human CD33 W22L (human, UniProt P20138 18-364)
Procedure: as §1, §2

human CD33 W22P = human CD33 W22P (human, UniProt P20138 18-364)
Procedure: as §1, §2

human CD33 W22Y = human CD33 W22Y (human, UniProt P20138 18-364)
Procedure: as §1, §2

human CD33 W22N = human CD33 W22N (human, UniProt P20138 18-364)
Procedure: as §1, §2

human CD33 W22Q = human CD33 W22Q (human, UniProt P20138 18-364)
Procedure: as §1, §2

human CD33 L23M = human CD33 L23M (human, UniProt P20138 18-364)
Procedure: as §1, §2

human CD33 Q24S = human CD33 Q24S (human, UniProt P20138 18-364)
Procedure: as §1, §2

human CD33 Q24T = human CD33 Q24T (human, UniProt P20138 18-364)
Procedure: as §1, §2

human CD33 Q24V = human CD33 Q24V (human, UniProt P20138 18-364)
Procedure: as §1, §2

human CD33 Q24I = human CD33 Q24I (human, UniProt P20138 18-364)
Procedure: as §1, §2

human CD33 Q24L = human CD33 Q24L (human, UniProt P20138 18-364)
Procedure: as §1, §2

human CD33 Q24N = human CD33 Q24N (human, UniProt P20138 18-364)
Procedure: as §1, §2

human CD33 Q24E = human CD33 Q24E (human, UniProt P20138 18-364)
Procedure: as §1, §2

human CD33 V25I = human CD33 V25I (human, UniProt P20138 18-364)
Procedure: as §1, §2

human CD33 V25L = human CD33 V25L (human, UniProt P20138 18-364)
Procedure: as §1, §2

human CD33 V25M = human CD33 V25M (human, UniProt P20138 18-364)
Chain of human CD33 V25M (P20138 18-364 V25M limits assumed): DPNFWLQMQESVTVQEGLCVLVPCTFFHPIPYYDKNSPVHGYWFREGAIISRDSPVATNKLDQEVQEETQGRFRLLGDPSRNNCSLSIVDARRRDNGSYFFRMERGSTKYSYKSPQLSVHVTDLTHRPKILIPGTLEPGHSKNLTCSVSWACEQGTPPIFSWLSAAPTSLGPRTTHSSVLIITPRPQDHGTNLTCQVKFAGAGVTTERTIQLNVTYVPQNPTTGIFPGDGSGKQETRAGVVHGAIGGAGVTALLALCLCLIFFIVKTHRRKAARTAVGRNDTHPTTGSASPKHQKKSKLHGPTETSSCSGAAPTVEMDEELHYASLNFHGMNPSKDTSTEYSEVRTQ
Procedure: as §1, §2

Chain of human CD33 N20W (P20138 18-364 N20W limits assumed): as the sequence (P20138 18-364 V25M limits assumed) above, with N3W, M8V counted along it
Chain of human CD33 N20K (P20138 18-364 N20K limits assumed): as the sequence (P20138 18-364 V25M limits assumed) above, with N3K, M8V counted along it
Chain of human CD33 D18R (P20138 18-364 D18R limits assumed): as the sequence (P20138 18-364 V25M limits assumed) above, with D1R, M8V counted along it
Chain of human CD33 F21S (P20138 18-364 F21S limits assumed): as the sequence (P20138 18-364 V25M limits assumed) above, with F4S, M8V counted along it
Chain of human CD33 W22L (P20138 18-364 W22L limits assumed): as the sequence (P20138 18-364 V25M limits assumed) above, with W5L, M8V counted along it
Chain of human CD33 P19L (P20138 18-364 P19L limits assumed): as the sequence (P20138 18-364 V25M limits assumed) above, with P2L, M8V counted along it
Chain of human CD33 P19K (P20138 18-364 P19K limits assumed): as the sequence (P20138 18-364 V25M limits assumed) above, with P2K, M8V counted along it
Chain of human CD33 P19D (P20138 18-364 P19D limits assumed): as the sequence (P20138 18-364 V25M limits assumed) above, with P2D, M8V counted along it
Chain of human CD33 W22G (P20138 18-364 W22G limits assumed): as the sequence (P20138 18-364 V25M limits assumed) above, with W5G, M8V counted along it
Chain of human CD33 Q24N (P20138 18-364 Q24N limits assumed): as the sequence (P20138 18-364 V25M limits assumed) above, with Q7N, M8V counted along it
Chain of human CD33 W22Q (P20138 18-364 W22Q limits assumed): as the sequence (P20138 18-364 V25M limits assumed) above, with W5Q, M8V counted along it
Chain of human CD33 Q24L (P20138 18-364 Q24L limits assumed): as the sequence (P20138 18-364 V25M limits assumed) above, with Q7L, M8V counted along it
Chain of human CD33 F21L (P20138 18-364 F21L limits assumed): as the sequence (P20138 18-364 V25M limits assumed) above, with F4L, M8V counted along it
Chain of human CD33 N20T (P20138 18-364 N20T limits assumed): as the sequence (P20138 18-364 V25M limits assumed) above, with N3T, M8V counted along it
Chain of human CD33 L23M (P20138 18-364 L23M limits assumed): as the sequence (P20138 18-364 V25M limits assumed) above, with L6M, M8V counted along it
Chain of human CD33 N20L (P20138 18-364 N20L limits assumed): as the sequence (P20138 18-364 V25M limits assumed) above, with N3L, M8V counted along it
Chain of human CD33 W22N (P20138 18-364 W22N limits assumed): as the sequence (P20138 18-364 V25M limits assumed) above, with W5N, M8V counted along it
Chain of human CD33 W22P (P20138 18-364 W22P limits assumed): as the sequence (P20138 18-364 V25M limits assumed) above, with W5P, M8V counted along it
Chain of human CD33 Q24T (P20138 18-364 Q24T limits assumed): as the sequence (P20138 18-364 V25M limits assumed) above, with Q7T, M8V counted along it
Chain of human CD33 V25I (P20138 18-364 V25I limits assumed): as the sequence (P20138 18-364 V25M limits assumed) above, with M8I counted along it
Chain of human CD33 N20P (P20138 18-364 N20P limits assumed): as the sequence (P20138 18-364 V25M limits assumed) above, with N3P, M8V counted along it
Chain of human CD33 Q24S (P20138 18-364 Q24S limits assumed): as the sequence (P20138 18-364 V25M limits assumed) above, with Q7S, M8V counted along it
Chain of human CD33 Q24V (P20138 18-364 Q24V limits assumed): as the sequence (P20138 18-364 V25M limits assumed) above, with Q7V, M8V counted along it
Chain of human CD33 W22Y (P20138 18-364 W22Y limits assumed): as the sequence (P20138 18-364 V25M limits assumed) above, with W5Y, M8V counted along it
Chain of human CD33 N20S (P20138 18-364 N20S limits assumed): as the sequence (P20138 18-364 V25M limits assumed) above, with N3S, M8V counted along it
Chain of human CD33 F21H (P20138 18-364 F21H limits assumed): as the sequence (P20138 18-364 V25M limits assumed) above, with F4H, M8V counted along it
Chain of human CD33 N20Q (P20138 18-364 N20Q limits assumed): as the sequence (P20138 18-364 V25M limits assumed) above, with N3Q, M8V counted along it
Chain of human CD33 F21I (P20138 18-364 F21I limits assumed): as the sequence (P20138 18-364 V25M limits assumed) above, with F4I, M8V counted along it
Chain of human CD33 Q24E (P20138 18-364 Q24E limits assumed): as the sequence (P20138 18-364 V25M limits assumed) above, with Q7E, M8V counted along it
Chain of human CD33 Q24I (P20138 18-364 Q24I limits assumed): as the sequence (P20138 18-364 V25M limits assumed) above, with Q7I, M8V counted along it
Chain of human CD33 N20Y (P20138 18-364 N20Y limits assumed): as the sequence (P20138 18-364 V25M limits assumed) above, with N3Y, M8V counted along it
Chain of human CD33 W22T (P20138 18-364 W22T limits assumed): as the sequence (P20138 18-364 V25M limits assumed) above, with W5T, M8V counted along it
Chain of human CD33 D18N (P20138 18-364 D18N limits assumed): as the sequence (P20138 18-364 V25M limits assumed) above, with D1N, M8V counted along it
Chain of human CD33 N20V (P20138 18-364 N20V limits assumed): as the sequence (P20138 18-364 V25M limits assumed) above, with N3V, M8V counted along it
Chain of human CD33 N20E (P20138 18-364 N20E limits assumed): as the sequence (P20138 18-364 V25M limits assumed) above, with N3E, M8V counted along it
Chain of human CD33 V25L (P20138 18-364 V25L limits assumed): as the sequence (P20138 18-364 V25M limits assumed) above, with M8L counted along it

Mean % WT Binding (human CD33 D18R): 68.3 % WT binding | Mean % WT Binding (human CD33 D18N): 32.2 % WT binding | Mean % WT Binding (human CD33 P19L): 103 % WT binding | Mean % WT Binding (human CD33 P19D): 105 % WT binding | Mean % WT Binding (human CD33 P19K): 85.4 % WT binding | Mean % WT Binding (human CD33 N20S): 101 % WT binding | Mean % WT Binding (human CD33 N20T): 106 % WT binding | Mean % WT Binding (human CD33 N20L): 88.2 % WT binding | Mean % WT Binding (human CD33 N20P): 97.2 % WT binding | Mean % WT Binding (human CD33 N20Y): 28 % WT binding | Mean % WT Binding (human CD33 N20W): 50.3 % WT binding | Mean % WT Binding (human CD33 N20Q): 97.2 % WT binding | Mean % WT Binding (human CD33 N20E): 108 % WT binding | Mean % WT Binding (human CD33 N20K): 91.8 % WT binding | Mean % WT Binding (human CD33 N20V): 96.9 % WT binding | Mean % WT Binding (human CD33 F21S): 115 % WT binding | Mean % WT Binding (human CD33 F21L): 118 % WT binding | Mean % WT Binding (human CD33 F21I): 89.3 % WT binding | Mean % WT Binding (human CD33 F21H): 111 % WT binding | Mean % WT Binding (human CD33 W22G): 8.1 % WT binding | Mean % WT Binding (human CD33 W22T): 2.6 % WT binding | Mean % WT Binding (human CD33 W22L): 1.1 % WT binding | Mean % WT Binding (human CD33 W22P): 1.8 % WT binding | Mean % WT Binding (human CD33 W22Y): 4.1 % WT binding | Mean % WT Binding (human CD33 W22N): 5.6 % WT binding | Mean % WT Binding (human CD33 W22Q): 7.6 % WT binding | Mean % WT Binding (human CD33 L23M): 100 % WT binding | Mean % WT Binding (human CD33 Q24S): 80.7 % WT binding | Mean % WT Binding (human CD33 Q24T): 97.7 % WT binding | Mean % WT Binding (human CD33 Q24V): 94.3 % WT binding | Mean % WT Binding (human CD33 Q24I): 89.9 % WT binding | Mean % WT Binding (human CD33 Q24L): 98.9 % WT binding | Mean % WT Binding (human CD33 Q24N): 95.4 % WT binding | Mean % WT Binding (human CD33 Q24E): 89.7 % WT binding | Mean % WT Binding (human CD33 V25I): 106 % WT binding | Mean % WT Binding (human CD33 V25L): 104 % WT binding | Mean % WT Binding (human CD33 V25M): 68.6 % WT binding
B1: Refmab #6 (antibody, human IgG1, V domains shown)
VH: QVQLQQPGAEVVKPGASVKMSCKASGYTFTSYYIHWIKQTPGQGLEWVGVIYPGNDDISYNQKFQGKATLTADKSSTTAYMQLSSLTSEDSAVYYCAREVRLRYFDVWGQGTTVTVSS
VL: EIVLTQSPGSLAVSPGERVTMSCKSSQSVFFSSSQKNYLAWYQQIPGQSPRLLIYWASTRESGVPDRFTGSGSGTDFTLTISSVQPEDLAIYYCHQYLSSRTFGQGTKLEIK
notes: tested in IgG format

Mean % WT Binding (human CD33 D18R): 97.4 % WT binding | Mean % WT Binding (human CD33 D18N): 58.7 % WT binding | Mean % WT Binding (human CD33 P19L): 100 % WT binding | Mean % WT Binding (human CD33 P19D): 96.4 % WT binding | Mean % WT Binding (human CD33 P19K): 86.2 % WT binding | Mean % WT Binding (human CD33 N20S): 95.1 % WT binding | Mean % WT Binding (human CD33 N20T): 107 % WT binding | Mean % WT Binding (human CD33 N20L): 96.3 % WT binding | Mean % WT Binding (human CD33 N20P): 96.8 % WT binding | Mean % WT Binding (human CD33 N20Y): 57.7 % WT binding | Mean % WT Binding (human CD33 N20W): 71.7 % WT binding | Mean % WT Binding (human CD33 N20Q): 93.2 % WT binding | Mean % WT Binding (human CD33 N20E): 109 % WT binding | Mean % WT Binding (human CD33 N20K): 105 % WT binding | Mean % WT Binding (human CD33 N20V): 108 % WT binding | Mean % WT Binding (human CD33 F21S): 112 % WT binding | Mean % WT Binding (human CD33 F21L): 122 % WT binding | Mean % WT Binding (human CD33 F21I): 95.7 % WT binding | Mean % WT Binding (human CD33 F21H): 108 % WT binding | Mean % WT Binding (human CD33 W22G): 101 % WT binding | Mean % WT Binding (human CD33 W22T): 108 % WT binding | Mean % WT Binding (human CD33 W22L): 96 % WT binding | Mean % WT Binding (human CD33 W22P): 110 % WT binding | Mean % WT Binding (human CD33 W22Y): 107 % WT binding | Mean % WT Binding (human CD33 W22N): 106 % WT binding | Mean % WT Binding (human CD33 W22Q): 109 % WT binding | Mean % WT Binding (human CD33 L23M): 90.7 % WT binding | Mean % WT Binding (human CD33 Q24S): 110 % WT binding | Mean % WT Binding (human CD33 Q24T): 105 % WT binding | Mean % WT Binding (human CD33 Q24V): 97.9 % WT binding | Mean % WT Binding (human CD33 Q24I): 94.6 % WT binding | Mean % WT Binding (human CD33 Q24L): 101 % WT binding | Mean % WT Binding (human CD33 Q24N): 110 % WT binding | Mean % WT Binding (human CD33 Q24E): 95.6 % WT binding | Mean % WT Binding (human CD33 V25I): 98.9 % WT binding | Mean % WT Binding (human CD33 V25L): 94.9 % WT binding | Mean % WT Binding (human CD33 V25M): 87.6 % WT binding
B2: Refmab #5 (antibody, human IgG1, V domains shown)
VH: QVQLVQSGAEVKKPGASVKVSCKASGYTFTNYDINWVRQAPGQGLEWIGWIYPGDGSTKYNEKFKAKATLTADTSTSTAYMELRSLRSDDTAVYYCASGYEDAMDYWGQGTTVTVSS
VL: DIQMTQSPSSLSASVGDRVTINCKASQDINSYLSWFQQKPGKAPKTLIYRANRLVDGVPSRFSGSGSGQDYTLTISSLQPEDFATYYCLQYDEFPLTFGGGTKVEIK
notes: tested in IgG format
